According to paper PMC10786891, “Massively parallel profiling of RNA-targeting CRISPR-Cas13d”:
Positions count from the first letter of the chain named. Numbers in names are those of the source.

T1: EsCas13d, nuclease-dead (Eubacterium siraeum, UniProt B0MS50, R295A;H300A;R849A;H854A)
T1 sequence: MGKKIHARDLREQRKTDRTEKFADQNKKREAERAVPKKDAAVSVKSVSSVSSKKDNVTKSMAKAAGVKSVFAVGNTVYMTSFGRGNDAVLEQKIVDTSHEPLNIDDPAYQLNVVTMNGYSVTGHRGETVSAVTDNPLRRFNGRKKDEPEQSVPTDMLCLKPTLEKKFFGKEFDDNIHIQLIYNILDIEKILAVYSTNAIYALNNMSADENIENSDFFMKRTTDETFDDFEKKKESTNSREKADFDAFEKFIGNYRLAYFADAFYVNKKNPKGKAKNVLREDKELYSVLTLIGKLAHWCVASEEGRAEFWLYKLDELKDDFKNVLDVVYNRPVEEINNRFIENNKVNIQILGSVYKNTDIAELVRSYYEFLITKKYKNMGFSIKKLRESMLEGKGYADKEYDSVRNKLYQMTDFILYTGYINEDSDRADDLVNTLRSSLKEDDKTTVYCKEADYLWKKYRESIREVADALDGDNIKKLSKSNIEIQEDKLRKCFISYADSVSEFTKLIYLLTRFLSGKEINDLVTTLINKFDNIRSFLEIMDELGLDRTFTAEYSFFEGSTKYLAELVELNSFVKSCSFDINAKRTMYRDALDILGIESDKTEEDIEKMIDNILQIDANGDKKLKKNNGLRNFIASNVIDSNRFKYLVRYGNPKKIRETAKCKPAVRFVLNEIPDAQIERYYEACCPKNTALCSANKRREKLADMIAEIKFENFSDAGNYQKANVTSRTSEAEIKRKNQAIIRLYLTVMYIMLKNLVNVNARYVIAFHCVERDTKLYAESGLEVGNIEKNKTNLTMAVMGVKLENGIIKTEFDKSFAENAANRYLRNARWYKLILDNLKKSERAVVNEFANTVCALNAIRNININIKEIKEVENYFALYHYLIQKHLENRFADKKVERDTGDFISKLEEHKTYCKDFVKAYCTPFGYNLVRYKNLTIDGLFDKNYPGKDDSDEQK

B1: target 1 C2G (60-mer) (mixed)
RNA 1: CACCCGUGCAAAAAUGCAGGGGUCUAAAACUGAGCGGAUAACCUCUCUAUGG
RNA 2: CCACAUCUACGAAUUCGUACCAUAGAGAGGUUAUCCGCUGACCGAGAUCGGAAGAGCACA
B2: target 1 C4A (60-mer) (mixed)
RNA 1: B1 RNA 1
RNA 2: B1 RNA 2 with C38A, G40C
B3: target 1 G5U (60-mer) (mixed)
RNA 1: B1 RNA 1
RNA 2: B1 RNA 2 with G37U, G40C
B4: target 1 C7A (60-mer) (mixed)
RNA 1: B1 RNA 1
RNA 2: B1 RNA 2 with C35A, G40C
B5: target 1 U10G (60-mer) (mixed)
RNA 1: B1 RNA 1
RNA 2: B1 RNA 2 with U32G, G40C
B6: target 1 G15A (60-mer) (mixed)
RNA 1: B1 RNA 1
RNA 2: B1 RNA 2 with G27A, G40C
B7: target 1 A18G (60-mer) (mixed)
RNA 1: B1 RNA 1
RNA 2: B1 RNA 2 with A24G, G40C
B8: target 1 A20C (60-mer) (mixed)
RNA 1: B1 RNA 1
RNA 2: B1 RNA 2 with A22C, G40C
B9: target 1 C22A (60-mer) (mixed)
RNA 1: B1 RNA 1
RNA 2: B1 RNA 2 with C20A, G40C
B10: target 1 5'-UAA (60-mer) (mixed)
RNA 1: B1 RNA 1
RNA 2: B1 RNA 2 with G17U, U18A, G40C
B11: target 1 3'-GCU (60-mer) (mixed)
RNA 1: B1 RNA 1
RNA 2: B1 RNA 2 with G40C, C42G, G44U
B12: target 1 3'-GGU (60-mer) (mixed)
RNA 1: B1 RNA 1
RNA 2: B1 RNA 2 with G40C, C42G, C43G, G44U
B13: target 1 3'-UAA (60-mer) (mixed)
RNA 1: B1 RNA 1
RNA 2: B1 RNA 2 with G40C, C42U, C43A, G44A
B14: target 1 3'-UGG (60-mer) (mixed)
RNA 1: B1 RNA 1
RNA 2: B1 RNA 2 with G40C, C42U, C43G
B15: target 1 3'-GUU (60-mer) (mixed)
RNA 1: B1 RNA 1
RNA 2: B1 RNA 2 with G40C, C42G, C43U, G44U
B16: crRNA-1 (MT) target (mixed)
RNA 1: CACCCGUGCAAAAUUGCAGGGGUCUAAAACUUUUGGUUGACCACAUCUUGAA
RNA 2: UUGGAAAACUUCAAGAUGUGGUCAACCAAAAUGCACAAGC
B17: crRNA-2 (MT) target (mixed)
RNA 1: CACCCGUGCAAAAUUGCAGGGGUCUAAAACCUUGAAGUUUUCCAAGUGCACU
RNA 2: UCCACAGCAAGUGCACUUGGAAAACUUCAAGAUGUGGUCA
B18: target 1 MT (60-mer) (mixed)
RNA 1: B1 RNA 1
RNA 2: B1 RNA 2 with G40C
B19: target 1 MT 5'PFS CUG 3'PFS AUG (mixed)
RNA 1: B1 RNA 1
RNA 2: GGGAAUGGAUCCACAUCUACGAAUUCCUGCCAUAGAGAGGUUAUCCGCUCAAUGAGAUCGGAAGAGCACACGU
B20: target 1 MT 5'PFS CUG 3'PFS AUA (mixed)
RNA 1: B1 RNA 1
RNA 2: B19 RNA 2 with G54A
B21: target 1 MT 5'PFS AAG 3'PFS UAC (mixed)
RNA 1: B1 RNA 1
RNA 2: B19 RNA 2 with C27A, U28A, A52U, U53A, G54C
B22: target 1 MT 5'PFS GCC 3'PFS UGU (mixed)
RNA 1: B1 RNA 1
RNA 2: B19 RNA 2 with C27G, U28C, G29C, A52U, U53G, G54U
B23: target 1 MT 5'PFS GCC 3'PFS UGA (mixed)
RNA 1: B1 RNA 1
RNA 2: B19 RNA 2 with C27G, U28C, G29C, A52U, U53G, G54A
B24: target 1 MT 5'PFS GCC 3'PFS UGC (mixed)
RNA 1: B1 RNA 1
RNA 2: B19 RNA 2 with C27G, U28C, G29C, A52U, U53G, G54C
B25: target 1 MT 5'PFS UUG 3'PFS UGU (mixed)
RNA 1: B1 RNA 1
RNA 2: B19 RNA 2 with C27U, A52U, U53G, G54U
B26: target 1 MT 5'PFS GGA 3'PFS AGA (mixed)
RNA 1: B1 RNA 1
RNA 2: B19 RNA 2 with C27G, U28G, G29A, U53G, G54A
B27: target 1 MT 5'PFS GCU 3'PFS UAA (mixed)
RNA 1: B1 RNA 1
RNA 2: B19 RNA 2 with C27G, U28C, G29U, A52U, U53A, G54A
B28: target 1 MT 5'PFS GCU 3'PFS UAG (mixed)
RNA 1: B1 RNA 1
RNA 2: B19 RNA 2 with C27G, U28C, G29U, A52U, U53A

biological target: T1, EsCas13d, nuclease-dead; experiment: BLI; crRNA (strand 1, pre-loaded); Mg2+; 40 mM Tris-HCl pH 7.5, 150 mM NaCl, 6 mM MgCl2, 1 mM DTT, 0.1% Tween-20, 0.2 mg/ml BSA; temperature not stated; conditions: tags: His6-TwinStrep-SUMO cleaved; label: 3' biotin on strand 2

Row | Binder | Kd [nM]
1 | B1 | 2
2 | B2 | 1.6
3 | B3 | 9.3
4 | B4 | 2.1
5 | B5 | 3.8
6 | B6 | 3.4
7 | B7 | 8.7
8 | B8 | 6.3
9 | B9 | 3.6
10 | B10 | 6
11 | B11 | 4.2
12 | B12 | 7.1
13 | B13 | 6
14 | B14 | 8.6
15 | B15 | 4.4
16 | B16 | 4
17 | B17 | 3

biological target: T1, EsCas13d, nuclease-dead; experiment: as above; conditions: tags: His6-TwinStrep-SUMO cleaved; label: 3' biotin on strand 2; remark: another data set of the same source

Row | Binder | koff [s⁻¹] | kon [M⁻¹ s⁻¹]
18 | B18 | 0.00052 | 170000
19 | B1 | 0.0004 | 200000
20 | B2 | 0.00035 | 220000
21 | B3 | 0.00042 | 45000
22 | B4 | 0.00045 | 220000
23 | B5 | 0.00051 | 130000
24 | B6 | 0.0006 | 180000
25 | B7 | 0.00063 | 73000
26 | B8 | 0.00063 | 100000
27 | B9 | 0.00066 | 190000
28 | B10 | 0.00061 | 100000
29 | B12 | 0.00084 | 120000
30 | B13 | 0.00061 | 100000
31 | B14 | 0.0006 | 70000
32 | B15 | 0.0011 | 250000
33 | B16 | 0.00038 | 96000

biological target: T1, EsCas13d, nuclease-dead; experiment: crRNA (strand 1, pre-loaded); Mg2+; 40 mM Tris-HCl pH 7.5, 150 mM NaCl, 6 mM MgCl2, 1 mM DTT, 0.1% Tween-20, 0.2 mg/ml BSA; 25 C; 10 min per concentration, then washed; conditions: tags: His6-TwinStrep-SUMO cleaved; N-terminal SNAP kept (SNAP-Surface 488); label: 3' end held by stalled T7 RNA polymerase

Row | Binder | Kd [nM]
34 | B19 | 33.5 ± 8
35 | B20 | 5.05 ± 1.4
36 | B21 | 24 ± 7
37 | B22 | 20 ± 5
38 | B23 | 11.8 ± 2.3
39 | B24 | 9 ± 1.35
40 | B25 | 51 ± 11.5
41 | B26 | 20.5 ± 2.75
42 | B27 | 49.5 ± 11
43 | B28 | ~95
